The values that follow come from patent US20160305952A1 (ROCHE SEQUENCING SOLUTIONS, published 2016).

Where no end group is shown, it is not given here.

The target in assay [1] is T1, Prostate Specific Antigen (human, UniProt P07288 25-261).
T1 construct: also called PSA
Kind of assay: peptide array, double substitution/deletion library.

For assay [2], the target named is T2, Tumor Necrosis Factor Alpha (human, UniProt P01375 77-233).
T2 construct: also called TNFα; TNF-α
In words: peptide array, 5-mer library, 5Z linker.

The target of assay [3] is T3, streptavidin (UniProt P22629 37-163, limits assumed).
T3 construct: amine-coupled to a CM5 chip for SPR; also called SA
Kind of assay: SPR, Biacore X100, streptavidin on CM5 chip, peptide in solution. From the text: (§1) A selection of streptavidin peptide binders listed in Table 15 were synthesized using standard column-based synthesis techniques by UW Biotechnology center (Madison, Wis.) or by Peptide2.0 (Chantilly, Va.) at 98-99% purity. Strep-tag II peptide NH2-[…]-COOH was purchased from IBA GmbH (Goettingen, Germany). Synthesized peptides were then characterized by Surface Plasmon Resonance (SPR) to identify binding characteristics including the association rate constant (kₛ), dissociation rate constant (kd), and equilibrium dissociation […] (kd/kₐ=KD). In one aspect, SPR experiments were performed by using Biacore X100 instrument (GE Healthcare). Preliminarily, 60 μl of 100 μg/ml streptavidin in 10 mM Na-acetate, pH5.0 was immobilized to flow cell 2 (Fc2) of a sensor chip CM5 (GE Healthcare) using Amine Coupling Kit (GE Healthcare) at 20° C. for 6 min. Peptide stock solutions were prepared at 5 or 10 mM concentration in water and diluted in HBS-EP+ (GE Healthcare) buffer before SPR experiments. Peptide binding was performed in a multiple kinetics mode using HBS-EP+ as a running buffer and 0.2 M NaCl, 10 mM NaOH or 10 mM HCl-glycine, […] as regeneration buffer. Binding kinetics parameters were calculated with Biacore X100 software.
(In SPR one partner is held on a chip, and binding of the other changes the refractive index at the surface.)

In assay [4] the target is T3, streptavidin. Kind of assay: SPR.
Source text: as §1

Assay [5] addresses T3, streptavidin. In words: SPR, Biacore X100, streptavidin on CM5 chip, peptide in solution; second KD value printed for the same peptide.
Source text: as §1

T1 sequence (P07288 25-261 limits assumed): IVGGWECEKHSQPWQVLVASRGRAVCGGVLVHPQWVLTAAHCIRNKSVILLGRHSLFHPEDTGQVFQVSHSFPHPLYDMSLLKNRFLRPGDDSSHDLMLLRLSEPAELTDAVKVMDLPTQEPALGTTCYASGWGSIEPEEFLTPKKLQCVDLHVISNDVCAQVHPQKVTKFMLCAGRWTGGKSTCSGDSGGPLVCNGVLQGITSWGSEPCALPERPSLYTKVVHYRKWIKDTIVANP
T3 sequence (P22629 37-163 limits assumed): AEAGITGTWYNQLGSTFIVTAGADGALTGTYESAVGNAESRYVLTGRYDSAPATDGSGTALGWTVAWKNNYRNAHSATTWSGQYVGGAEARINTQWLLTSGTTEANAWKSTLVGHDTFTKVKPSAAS
T2 sequence (P01375 77-233 limits assumed): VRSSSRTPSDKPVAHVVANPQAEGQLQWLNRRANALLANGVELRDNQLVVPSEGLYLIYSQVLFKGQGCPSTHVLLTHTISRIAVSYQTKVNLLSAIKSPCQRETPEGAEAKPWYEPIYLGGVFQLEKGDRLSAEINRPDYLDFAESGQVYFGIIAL

B1: ALDWQVYAGFG (peptide)
peptide: ALDWQVYAGFG
With B1, the binding result in assay [1] is “binds”.

B2: VTVYV (peptide)
peptide: VTVYV
modifications: also: array-bound via 5Z linker
For the molecule B2, the binding result in assay [2] is “binds”.

B3: GTGWEVHLGKG (peptide)
peptide: GTGWEVHLGKG
Consider B3, for which the binding result in assay [1] is reported as “binds”.

B4: NH2-RDPAPAWAHGGG-amide (peptide)
peptide: H-RDPAPAWAHGGG-NH2
notes: free peptide
A word on the Kd: it is the concentration at which binding is half-saturated. The term koff denotes a measure of how fast the partners let go of each other. High values mean a short-lived complex, low ones a long-lived complex. By kon is commonly meant the second-order rate constant of association. A high value points to faster complex formation. On to B4, for which, in the assay with streptavidin [3], the Kd amounted to 4.66 µM, the koff was 0.0696 s⁻¹ and the kon was found to be 14900 M⁻¹ s⁻¹. The “fold change in KD as compared with the parent peptide …” value with streptavidin [4] was at least 100 fold.

B5: GTDFEVYFPKI (peptide)
peptide: GTDFEVYFPKI
Turning to B5, the binding result in assay [1] is recorded as “binds”.

B6: NH2-EWVHPQFEQKAK-amide (peptide)
peptide: H-EWVHPQFEQKAK-NH2
notes: free peptide
B6: the Kd is 5.68 µM with streptavidin [3] and 5.87 µM with streptavidin [5].
